Among the data in paper PMC7031854 are band intensity (AU) values, retold here.

The target of assay [1] is GST-tagged lamprey γ-synuclein NTD (lamprey). Kind of assay: pull-down; direct binding: 50-100 μg GST-tagged protein as bait, 100 μg purified recombinant bovine Hsc70 or truncation, without nucleotides; Western blot, band intensity in AU.
Assay [2] shares this target. Kind of assay: pull-down; 50-100 μg GST-tagged protein as bait, 1-5 mg rat brain extract in HKET buffer (25 mM HEPES K+, 150 mM KCl, 1 mM EDTA, 1% Triton X-100, pH 7.4); bound proteins detected by Western blot, band intensity in AU. Background: A western blot detects proteins with antibodies after separation by electrophoresis.
In assay [3] the target is GST-tagged human α-synuclein (full length, wild type) (human) (UniProt P37840). Description: pull-down; 50-100 μg GST-tagged protein as bait, 1-5 mg lamprey CNS (brain and spinal cord) extract in HKET buffer; bound Hsc70 detected by Western blot, band intensity in AU.
Assay [4] has as its target GST-tagged human α-synuclein NTD (a.a. 1-102) (human) (UniProt P37840). The assay is described as above.

In the case of “His-tagged recombinant bovine Hsc70 (from UniProt P19120 1-650) (natural protein)”, in assay [1], the band intensity (AU) was 62.8 AU. In assay [2], “Hsc70 from rat brain extracts (from UniProt P63018 1-646) (natural protein)” gave a band intensity (AU) of 153 AU. In the case of “endogenous Hsc70 from lamprey brain and spinal cord extracts (natural protein)”, the band intensity (AU) in assay [3] is 106 AU; in assay [4] it was 154 AU.
